Tested on: peptide library, one residue held at a place counted from the S/T acceptor
Assay: relative phosphorylation of the sub-library (ratio to the mean residue at this position); higher = residue favoured
Conditions: human
How it was run: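 Purified recombinant kinases, either human or orthologue constructs, were incubated in 384-well plates with biotinylated degenerate peptide sub-libraries. Each sub-library fixed one residue at one position around a central Ser/Thr. Peptides at 50 μM and 50 μM ATP spiked with γ-32P-ATP were used for 90 min under kinase-specific conditions, and spots on streptavidin membranes were phosphorimaged and quantified by densitometry. Relative sub-library phosphorylation is expressed as a ratio to the mean residue at that position.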

Chain of PRKX, construct: Full length (P51817 whole entry, looked up): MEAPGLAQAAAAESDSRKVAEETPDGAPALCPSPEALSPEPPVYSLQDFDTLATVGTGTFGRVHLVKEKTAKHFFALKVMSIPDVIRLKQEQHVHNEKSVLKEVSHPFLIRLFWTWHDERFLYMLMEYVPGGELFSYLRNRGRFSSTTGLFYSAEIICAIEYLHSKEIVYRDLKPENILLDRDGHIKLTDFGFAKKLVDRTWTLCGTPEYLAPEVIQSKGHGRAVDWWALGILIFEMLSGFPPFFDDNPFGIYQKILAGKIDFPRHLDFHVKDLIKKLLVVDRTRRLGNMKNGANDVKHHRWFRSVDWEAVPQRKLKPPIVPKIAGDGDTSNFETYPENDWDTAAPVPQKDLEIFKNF
Chain of SIK1, construct: aa1-303 (P57059 1-303, looked up): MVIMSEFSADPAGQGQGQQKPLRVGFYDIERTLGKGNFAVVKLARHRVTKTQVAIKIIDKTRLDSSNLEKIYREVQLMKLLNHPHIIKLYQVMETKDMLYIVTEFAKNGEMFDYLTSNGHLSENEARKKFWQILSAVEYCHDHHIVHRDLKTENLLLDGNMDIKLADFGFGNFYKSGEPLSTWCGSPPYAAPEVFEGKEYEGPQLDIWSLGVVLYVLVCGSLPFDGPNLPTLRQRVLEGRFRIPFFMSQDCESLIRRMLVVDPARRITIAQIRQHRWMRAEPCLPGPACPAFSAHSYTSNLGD
Chain of ROCK1, construct: aa1-535 (Q13464 1-535, looked up): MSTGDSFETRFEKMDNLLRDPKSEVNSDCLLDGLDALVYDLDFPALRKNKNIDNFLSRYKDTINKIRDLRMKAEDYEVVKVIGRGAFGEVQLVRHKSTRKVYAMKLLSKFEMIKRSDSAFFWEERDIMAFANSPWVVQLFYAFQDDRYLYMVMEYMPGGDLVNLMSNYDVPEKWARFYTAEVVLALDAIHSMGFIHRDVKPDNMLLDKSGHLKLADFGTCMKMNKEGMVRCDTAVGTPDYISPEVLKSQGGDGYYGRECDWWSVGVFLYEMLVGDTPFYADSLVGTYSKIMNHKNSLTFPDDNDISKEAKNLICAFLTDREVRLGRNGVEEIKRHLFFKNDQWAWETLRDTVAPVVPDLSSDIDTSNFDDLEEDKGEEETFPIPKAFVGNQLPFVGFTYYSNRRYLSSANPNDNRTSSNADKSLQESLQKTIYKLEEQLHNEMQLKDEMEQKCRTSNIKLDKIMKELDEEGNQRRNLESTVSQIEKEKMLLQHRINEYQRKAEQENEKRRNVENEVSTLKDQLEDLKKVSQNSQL

PRKX, construct: Full length (from UniProt P51817)
relative phosphorylation
Conditions | at +1 | at +2 | at +3 | at +4 | at -1 | at -2 | at -3 | at -4 | at -5
A fixed | 0.71 | 1.3 | 0.688 | 0.785 | 0.651 | 0.289 | 0.299 | 1.03 | 1.08
D fixed | 0.862 | 2.53 | 1.6 | 2.09 | 0.698 | 0.224 | 0.2 | 0.876 | 1.11
E fixed | 0.814 | 1.04 | 1.32 | 1.61 | 0.424 | 0.2 | 0.208 | 0.881 | 0.985
F fixed | 0.849 | 0.505 | 0.697 | 0.599 | 0.425 | 0.212 | 0.128 | 0.515 | 0.596
G fixed | 1.06 | 1.27 | 1.49 | 1.08 | 1.29 | 0.382 | 0.477 | 1.1 | 1.4
H fixed | 0.919 | 1.16 | 1.31 | 1.04 | 1.18 | 0.662 | 1.14 | 1.09 | 1.26
I fixed | 0.872 | 0.411 | 0.344 | 0.522 | 0.184 | 0.143 | 0.111 | 0.357 | 0.528
K fixed | 1.55 | 0.713 | 1.38 | 1.12 | 2.79 | 4.76 | 3.29 | 2.53 | 2.14
L fixed | 0.859 | 0.47 | 0.627 | 0.572 | 0.399 | 0.185 | 0.112 | 0.451 | 0.507
M fixed | 0.884 | 0.504 | 0.462 | 0.643 | 0.534 | 0.176 | 0.134 | 0.575 | 0.651
N fixed | 1.41 | 1.47 | 1.52 | 1.48 | 1.7 | 0.343 | 0.383 | 0.914 | 1.11
P fixed | 0.584 | 1.84 | 1.24 | 1.3 | 1.55 | 0.395 | 0.797 | 1.22 | 0.811
Q fixed | 1.47 | 1.24 | 1.36 | 1.23 | 1.41 | 0.483 | 0.444 | 1.18 | 0.807
R fixed | 1.57 | 0.881 | 1.13 | 1.06 | 2.37 | 7.88 | 8.71 | 2.58 | 2.12
V fixed | 0.801 | 0.498 | 0.413 | 0.623 | 0.217 | 0.143 | 0.112 | 0.412 | 0.454
W fixed | 1.02 | 0.624 | 0.752 | 0.637 | 0.457 | 0.295 | 0.246 | 0.686 | 0.731
Y fixed | 0.766 | 0.548 | 0.669 | 0.608 | 0.711 | 0.234 | 0.204 | 0.613 | 0.71
pThr fixed | 1.32 | 1.05 | 1.35 | 2.62 | 0.462 | 0.431 | 0.421 | 0.921 | 1.04
pTyr fixed | 1.54 | 1.38 | 1.3 | 1.55 | 0.999 | 0.374 | 0.345 | 0.864 | 0.882

ROCK1, construct: aa1-535 (from UniProt Q13464)
relative phosphorylation
Conditions | at +1 | at +2 | at +3 | at +4 | at -1 | at -2 | at -3 | at -4 | at -5
A fixed | 0.632 | 0.883 | 1.01 | 0.721 | 0.745 | 0.528 | 0.549 | 0.906 | 0.953
D fixed | 0.366 | 0.412 | 0.54 | 0.674 | 0.384 | 0.203 | 0.219 | 0.44 | 0.454
E fixed | 0.358 | 0.39 | 0.488 | 0.656 | 0.303 | 0.188 | 0.231 | 0.525 | 0.462
F fixed | 0.758 | 0.678 | 1.11 | 1.13 | 0.579 | 0.42 | 0.343 | 0.653 | 0.703
G fixed | 0.706 | 0.773 | 1.42 | 1.06 | 1.03 | 0.534 | 0.577 | 1.1 | 1.06
H fixed | 0.963 | 1.13 | 1.23 | 1.15 | 1.23 | 1.12 | 1.35 | 1.15 | 1.19
I fixed | 1.43 | 1.13 | 0.81 | 0.866 | 0.52 | 0.268 | 0.28 | 0.532 | 0.603
K fixed | 1.1 | 1.6 | 1.08 | 1.35 | 2.43 | 2.69 | 2.63 | 2.22 | 2.44
L fixed | 1.57 | 1.2 | 1.01 | 1.06 | 1.02 | 0.359 | 0.316 | 0.571 | 0.495
M fixed | 1.64 | 0.968 | 0.913 | 0.999 | 1.06 | 0.448 | 0.352 | 0.732 | 0.586
N fixed | 1.38 | 0.854 | 0.988 | 1.15 | 1.14 | 0.906 | 0.575 | 0.89 | 0.878
P fixed | 0.224 | 0.727 | 1.15 | 0.994 | 0.816 | 0.43 | 0.412 | 0.891 | 0.931
Q fixed | 1.33 | 0.866 | 0.897 | 1.12 | 1.11 | 0.842 | 0.703 | 0.88 | 0.83
R fixed | 2.22 | 2.27 | 1.34 | 1.37 | 2.27 | 6.35 | 7.13 | 3.19 | 3.2
V fixed | 0.969 | 1.26 | 0.818 | 0.709 | 0.648 | 0.317 | 0.293 | 0.657 | 0.672
W fixed | 0.704 | 0.808 | 1.16 | 1.07 | 0.673 | 0.774 | 0.562 | 0.885 | 0.759
Y fixed | 0.648 | 1.05 | 1.03 | 0.927 | 1.05 | 0.623 | 0.485 | 0.777 | 0.778
pThr fixed | 0.432 | 0.607 | 0.507 | 0.658 | 0.315 | 0.378 | 0.392 | 0.712 | 0.745
pTyr fixed | 0.477 | 0.576 | 0.731 | 0.674 | 0.525 | 0.329 | 0.407 | 0.625 | 0.817

SIK1, construct: aa1-303 (from UniProt P57059)
relative phosphorylation
Conditions | at +1 | at +2 | at +3 | at +4 | at -1 | at -2 | at -3 | at -4 | at -5
A fixed | 0.56 | 1.1 | 0.618 | 0.641 | 0.972 | 1.89 | 0.589 | 0.941 | 1.01
D fixed | 0.593 | 0.666 | 1.84 | 0.416 | 0.724 | 0.326 | 0.282 | 0.786 | 0.672
E fixed | 0.718 | 0.524 | 0.523 | 0.334 | 0.46 | 0.304 | 0.309 | 0.966 | 0.746
F fixed | 0.996 | 0.694 | 1.08 | 0.86 | 0.432 | 1.13 | 0.47 | 0.768 | 1.22
G fixed | 0.493 | 0.841 | 0.595 | 0.697 | 2.75 | 0.851 | 0.382 | 1.01 | 0.737
H fixed | 0.797 | 0.662 | 1.18 | 0.767 | 0.966 | 1.44 | 0.877 | 1.24 | 0.829
I fixed | 1.18 | 1.06 | 0.907 | 2.22 | 0.289 | 0.451 | 0.24 | 0.457 | 0.721
K fixed | 0.839 | 0.992 | 0.716 | 0.722 | 1.76 | 1.23 | 2.52 | 1.61 | 1.31
L fixed | 1.11 | 0.626 | 0.992 | 4.05 | 0.722 | 0.35 | 0.343 | 0.535 | 1.7
M fixed | 1.87 | 0.998 | 0.928 | 1.48 | 0.82 | 0.556 | 0.508 | 0.93 | 1.09
N fixed | 1.2 | 1.09 | 2.97 | 0.688 | 1.43 | 0.809 | 0.587 | 1.01 | 0.894
P fixed | 0.315 | 1.08 | 0.439 | 0.676 | 1.24 | 0.347 | 0.505 | 1.09 | 0.831
Q fixed | 2.08 | 0.958 | 0.965 | 0.557 | 1.4 | 0.784 | 0.675 | 1.01 | 0.958
R fixed | 1.16 | 1.33 | 0.659 | 0.518 | 1.22 | 1.35 | 6.57 | 1.86 | 1.65
V fixed | 1.23 | 1.1 | 0.599 | 1.12 | 0.565 | 0.868 | 0.329 | 0.512 | 0.744
W fixed | 0.868 | 2.13 | 0.916 | 0.695 | 0.516 | 2.72 | 1.25 | 1.24 | 1.05
Y fixed | 0.982 | 1.14 | 1.08 | 0.564 | 0.732 | 1.59 | 0.569 | 1.03 | 0.832
pThr fixed | 0.764 | 0.579 | 0.35 | 0.475 | 0.285 | 0.388 | 0.433 | 0.706 | 0.562
pTyr fixed | 0.75 | 0.358 | 0.419 | 0.526 | 0.812 | 0.469 | 0.515 | 0.699 | 0.731

— the supplement of paper PMC9876800
